Results as given in patent US20060235199A1, “Reagent for amplifying amyloid fibrosis of amyloid ss-protein” (priority 2003, published 2006).

Key:
[1] = biological target: T1, Aβ (10-35) formed into amyloid fibrils (nucleus) (Homo sapiens, UniProt P05067); test: Amplification, with the artificial peptide, of formation of fibrils of Aβ (10-35) formed into fibrils, monitored with ThT; format: biochemical; conditions: peptide 200 μM, Aβ (10-35) nucleus 10 μM, room temperature; for increase in ThT fluorescent intensity in the presence of the nucleus: after 1 day
T1 construct: peptide [Aβ (10-35)] consisting of 10 to 35 residues of amyloid β peptide; made in house; host or cells: chemical synthesis (Fmoc solid phase method)
Experimental: The amplification of formation of fibrils of Aβ (10-35) formed into amyloid fibrils was attempted by using each of the artificial peptides synthesized in Example 1. A small amount of Aβ (10-35) previously formed into fibrils under the condition in (1-2) above was added to a solution of the artificial peptide, and the amplification of formation of fibrils was monitored with ThT.
Starting solution used: [peptide]=2 mM solution in TFE
Concentrations: [peptide]=200 μM, [Aβ (10-35) (nucleus)]=10 μM • (20 mM Tris-HCl buffer (pH 7.4))
(§1) Aβ (10-35) (nucleus) was homogenized by sonication for 1 hour before dilution.
Temperature: room temperature
Concentration: [peptide]=5 μM, [ThT]=6 μM • (20 mM Tris-HCl buffer (pH 7.4))
Stirring conditions: The whole volume of the reaction mixture was sufficiently stirred with a Pasteur pipette before sampling, and then sufficiently stirred in a cell with a Pasteur pipette.
Excitation wavelength: 440 nm, detection wavelength: 482 nm.

[2] = biological target: T1, Aβ (10-35) formed into amyloid fibrils (nucleus); test: Amplification of fibrils of Aβ (10-35) formed into amyloid fibrils, measurement using a plate reader; format: biochemical; conditions: high to low; for rank of difference in fluorescence intensity between nucleus added and not added (ability to amplify fibrils): after completion of fluorescent intensity change; for rank of increase in fluorescent intensity among peptides to which the nucleus had been added: with Aβ (10-35) nucleus
Experimental: A test for the amplification of fibrils of Aβ (10-35) formed into amyloid fibrils by using the artificial peptide of the present invention in Example 2 was attempted using a plate reader.
Starting solution used: [peptide]=5 mM solution in DMSO
Concentrations: [peptide]=20 μM, [Aβ (10-35) (nucleus)]=2.5 μM • (20 mM Tris-HCl buffer (pH 7.4))
as §1
Concentrations: [peptide]=18 μM, [ThT]=25 μM • (20 mM Tris-HCl buffer (pH 7.4))
Stirring conditions: The whole volume of the reaction mixture was stirred 3 times for 2 seconds with a vortex and then (100 μl×2) was stirred with a micropipette in a well before measurement.
Excitation wavelength: 440 nm, detection wavelength: 490 nm.

[3] = Measurement of the secondary structure of each peptide by a CD spectrum; format: physicochemical; conditions: peptide 100 μM, 20 mM Tris-HCl buffer (pH 7.4); for secondary structure by CD spectrum: CD at 25° C.; for CD spectral change with time: incubated at ordinary temperatures
Experimental: The peptide (10-4F), (10-3L), (10-3F), (10-3A), Aβ (14-23) or Aβ (10-35) synthesized in Example 1, which was contained alone in an aqueous solution, was evaluated for its ability to form amyloid fibrils. The secondary structure was examined using a CD spectrum, and the ability to form amyloid fibrils was evaluated with dye thioflavin T (ThT) binding specifically to amyloid fibrils to emit fluorescence, under a transmission electron microscope (TEM).
Solutions of the respective synthesized peptides, 2 mM, in trifluoroethanol (TFE) were prepared and used as stock solutions respectively. Each stock solution was diluted to a final peptide concentration of 100 μM with 20 mM Tris-HCl buffer (pH 7.4), then incubated at ordinary temperatures, and measured for CD spectrum at 25° C. (FIG. 1).

[4] = Evaluation, with ThT, of the ability of the artificial peptide used alone to form amyloid fibrils; conditions: peptide 200 μM alone; for time required to finish formation of fibrils at 40° C. compared with ordinary temperatures: incubation at 40° C.; for time having elapsed until the increase in fluorescent intensity was finished: incubation at room temperature
Experimental: The peptide (10-4F), (10-3L), (10-3F), (10-3A), Aβ (14-23) or Aβ (10-35) synthesized in Example 1, which was contained alone in an aqueous solution, was evaluated for its ability to form amyloid fibrils. The secondary structure was examined using a CD spectrum, and the ability to form amyloid fibrils was evaluated with dye thioflavin T (ThT) binding specifically to amyloid fibrils to emit fluorescence, under a transmission electron microscope (TEM). The ability of each artificial peptide obtained in Example 1 to form amyloid fibrils when used alone was evaluated using ThT. Starting solution used: [peptide]=2 mM solution in TFE Concentration: [peptide]=200 μM in 20 mM Tris-HCl buffer (pH 7.4) Temperature: room temperature or 40° C. Concentrations: [peptide]=5 μM, [ThT]=6 μM (20 mM Tris-HCl buffer (pH 7.4)) Temperature: room temperature Stirring conditions: The whole volume of the reaction mixture was sufficiently stirred with a Pasteur pipette before sampling, and then sufficiently stirred in a cell with a Pasteur pipette. Excitation wavelength: 440 nm, detection wavelength: 482 nm. The formation of fibrils was slow at ordinary temperatures to make it difficult to monitor the change with time, so the ability of each artificial peptide used alone to form fibrils was then evaluated at an elevated temperature of 40° C. estimated to accelerate formation of fibrils.

Row | Substance | increase in ThT fluorescent intensity in the presence of the nucleus [1] | rank of difference in fluorescence intensity between nucleus added and not added (ability to amplify fibrils) [2] | rank of increase in fluorescent intensity among peptides to which the nucleus had been added [2] | secondary structure by CD spectrum [3] | CD spectral change with time [3] | fluorescent intensity with the nucleus relative to that in the absence of the nucleus [1] | time required to finish formation of fibrils at 40° C. compared with ordinary temperatures [4] | time having elapsed until the increase in fluorescent intensity was finished [4]
1 | Ac-Lys-Gln-Lys-Leu-Leu-Ala-Leu-Leu-Glu-Glu-NH2 (Ac-KQKLLALLEE-NH2) [10-3A] | no increase in fluorescent intensity | order of 10-3L, 10-4F, 10-3F, and 10-3A | order of 10-4F, 10-3L, 10-3F, and 10-3A | spectra unique to random coil state | no spectral change with time |  |  | 
2 | Ac-Lys-Gln-Lys-Leu-Leu-Leu-Leu-Leu-Glu-Glu-NH2 (Ac-KQKLLLLLEE-NH2) [10-3L] | significant increase in fluorescent intensity | highest | order of 10-4F, 10-3L, 10-3F, and 10-3A | spectra unique to β-sheet structure | increased signals with time | twice as high | significantly shortened | 3 days
3 | Ac-Lys-Gln-Lys-Leu-Leu-Leu-Phe-Leu-Glu-Glu-NH2 (Ac-KQKLLLFLEE-NH2) [10-4F] | significant increase in fluorescent intensity | order of 10-3L, 10-4F, 10-3F, and 10-3A | largest increase in fluorescent intensity | spectra unique to β-sheet structure | increased signals with time |  | hardly changed | about 6 days
4 | Ac-Lys-Gln-Lys-Leu-Leu-Phe-Leu-Leu-Glu-Glu-NH2 (Ac-KQKLLFLLEE-NH2) [10-3F] | no increase in fluorescent intensity | order of 10-3L, 10-4F, 10-3F, and 10-3A | order of 10-4F, 10-3L, 10-3F, and 10-3A | spectra unique to β-sheet structure | increased signals with time |  | hardly changed | about 6 days
5 | Aβ (10-35): peptide consisting of 10 to 35 residues of amyloid β peptide, used as the nucleus of amyloid fibril (YEVHHQKLVFFAEDVGSNKGAIIGLM; Amyloid-beta protein 42; UniProt P05067 681-706, looked up, fragment) [reference compound] |  |  |  | spectra unique to β-sheet structure | increased signals with time |  |  | 
6 | Aβ (14-23): peptide consisting of 14 to 23 residues of amyloid β peptide (HQKLVFFAED; Amyloid-beta protein 42; UniProt P05067 685-694, looked up, fragment) |  |  |  | spectra unique to random coil state | no spectral change with time |  | significantly shortened | 
